Results from the nanobody polyreactivity screen of Harvey et al. (2022).

experiment: yeast display, Sf9 membrane polyspecificity reagent, FACS + sequencing; frameworks hold sequencing errors
Summary of the method: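 Synthetic nanobody libraries on Saccharomyces cerevisiae BJ5465 were galactose-induced for 36–48 hours, stained 1 hour at 4 °C with 10% biotinylated, detergent-solubilized Sf9 membrane reagent and enriched on streptavidin microbeads. FACS then separated cells into low and high (top ~1%) gates by anti-HA (expression) and streptavidin (reagent binding) fluorescence. Genes were colony-PCR amplified, MiSeq 2 × 250 sequenced and CDR-length filtered. A clone's polyreactivity label is that of its gate of origin.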

Row | Sequence | polyreactivity (PSR sort gate)
1 | QVQHVESGGGLVQAGGSLSLSCADSGFIFRYYAMGWYRQAPGKERELDAAISWSGGSTYYADSVKGRFTISRDNSKNTVYLQMNSLKPEDTAVYYCAADRYAILFYAEDYWGQGSQVTVSS | low polyreactivity
2 | QVQLVESGGGLVQEGGSLRLSCAASGSTFPGNAMGWYRQAPGKERELVAAIRDRGTSTYYADSVKGRFTISRDNAKNTVYLQMNSLKPEDTAVYYCAAASRVAKGRWRLYDYWGQGTQVTVSS | high polyreactivity
3 | QVQLVESGGGLVQAGGSLRLSCAASGRTFYYYAMGWYRQAPGKEWELVAAIRGGGGSTYADSVKGRFTISRDNAKNTVYLQMNSLKPEDTAVYYCNVVRTGRYPGFLTFDYWGQGTQVTVSS | high polyreactivity
4 | QVQLVESGGGLVPAGGSLRLSCDASGRTFWFYAMGWYRQAQGKERELVASITSGGGTNYADSVKGRFTISRDNAKNTVYLQMNSLKPEDTAVYYCAADRAYGVLGNEGGYWGQGTQVTVSS | high polyreactivity
5 | QVQLVESGGGLVQAGGSLRLSCAASGSIFWRNAMGWYRQAPGKERELVAAISRVGSTNYADSVKGRFTISRDNAKNTVYLQMNSLKPEDTAVYYCAADGTVVRDFDYWGQGTQVTVSS | low polyreactivity
6 | QVQLVESGGGLVQAGGSLRLSCAASGRIFFKNAMGWYRQAPGKERELVAGISWSGGRTYYADSVKGRFTISRDNAKNTVYLQMNSLKPEDTAVYYCNAGSSFYRSLRYEYWGQGTQVTVSS | high polyreactivity
7 | QVQLVESGGGLVQAGGSLRLSCAASGYTFGAYAMGWNRQAPGKERELVAAITVRAGRTYYADSVKGRFTISRDNAKNSVYLQMNSLKPEDTSVYYCARRNPLGGNEHDYWGHGTQVTVSS | low polyreactivity
8 | QVQLVESGGGLVQAGGSLRLSCAASGSTFRYYALGWYRQAPGKERELVAAISTSGGRTYYADSVKGRFTISRDNAKNTVYLQMNSLKPEDTAVYYCNARESRGYAYQTWKYYYWGQGTQVTVSS | high polyreactivity
9 | QVQLVESGGGLVQAGGSLRLSCAASGRTFGAYSMGWYRQAPGKERELVASISRSGGSTYYADSVKGRFTISRDNAKNTVYLQMNSLKPEETAVYYCAARVYRYGAMDYWGQGTQVTVSS | high polyreactivity
10 | QVQLVESGGGLVQAGGSLRLSCAASGITFWGYAMGWYRQAPGKEREFVARINWSGGRTYYAESVKGRFTISRDNAKNTVYLQMNSLKPEDTAVYYCAATSLIYGYRTYDYWGQGTQVTVSS | high polyreactivity
11 | QVQLVESGGGLVQAGGSLRLSCAASGSIFVPYAMGWYRQAPGKERELVAAISSRGGRTYYADSVKGRFTISRDNAKNTVYLQMNSLKPEDTAVYYCNKTAGSHIPRLEYWGQGTQVTVSS | low polyreactivity
12 | QDQLVESGGGLVHAGCSLRLSCAASGRTFYGNAMGWYRQAPGKERELVAGITRGGSTYYADSVKGRFTISRDNAKNNVYLQMNSLKPEDTAVYYCAATRYYSWGSRGGYWGQGTQVSVSS | high polyreactivity
13 | QVQLVESGGRLVQAGGSLLLSSAASGRTFGIYAMGWSRQSPGKERELCAAITWSGDSTYYADSVKGRFTISRDNAKNTVYIQMNSLKPEDTAVYYCAADYVGLTSVRYDYWGQGTQVTVSS | low polyreactivity
14 | QVQRVESGGGLVQAGGSLRLSCAASGSTFYFYARGWYRQAPGKERELVAVITDGGAITYYADSVKGRFTISRDNAKNTVYLQMNSLKPEDTAVYYCAASSFGWYTRYDYWGQGTQVTVSS | high polyreactivity
15 | QVQLVESGGGLVQAGGSLRLSCAASGSTFRVNAMGWYRQEPGKEREFVDAITWSTGSTYYADSVKGRFTISRDYAMNTVYLQMNSLKPEDTAVYYCAAREQTYSQRGKKLYYFWGQGTQVTVST | high polyreactivity
16 | QVQLVESGGGLVQAGGSLRLSCAASGRTFYLYAMGWYRQAPGKVRELVAAITRRGGSPYYADSVKGRFTISRDNAKNTVYLQMNSLKPEDTAVSYCAADRPGTGYSDYDYWGQGTQVTVSS | high polyreactivity
17 | QDQLVDSGGGLDQAGGSLRLSCAASGGTFSSYDMGWYRQEPGKERELLADISWSGSSTDYADSVKGRYTISRDNAKNTVYLQLTSLKPEDTAVYYCAARPISFPYLGRNGYWGQGTQVTVSS | low polyreactivity
18 | QVQLVESGGGLVQAGGSLRLSCAASGFISDVYAMGWYRQAPGKERELVAVITWRGSTYYADSVKGRFTISRDNAKNTVYLQMNSLKPEDTAVYYCAAESQGDWAFDYWGQGTQVTVSS | low polyreactivity
19 | QVQLVESGGGFVQAGGSLRVSCAASGSIFRPDAMGWYRPAPGKERELVAAITWSGGRTYYADSVKGRFTISRDNAKNTVDLQMNSLKPEDTAVYYCAARPRYYYWFKSGTRVEYDYWGQGTQVTVSS | high polyreactivity
20 | QVHLVESGGGLVQAGCSLRVSCAASGRIFLYTGKGWSRQAAGKERELVAAISSGGSTYYADSVKGRFTISRDNAKNTVYLQMNSLKPEDTAVYYCAKEGHVVIFYIGQYELDFWGQGTQVTVSS | low polyreactivity
21 | QVQLAESGGGLVQAGVSLRISCAASGSTFSVYAMGWYRQAPGKERELVATIRRGGSTYADSVKGRFTISRDNAKITVYLQMNRLKPEDTAVYYCASDAYVSYQPMDYWGQGTQVTVSS | high polyreactivity

Row | Sequence | polyreactivity (PSR sort gate)
22 | QVQLVESGGGLVQAGGSLRLSCAASGITFPRYVMGWYRQAPGKEREFVAAINYSGGRTYYADSVKGRFTISRDNAKNTVYLQMKSLKPEDTAVYYCAVDLHVWPFWFDYWGQGTQVTVSS | high polyreactivity
23 | QVQLVESGGGLVQAGGILRLSCAASGSIFIYYAMVWYRQAPGKERELVAAISSSGGRTYYADSVKGRFTISRDNAKNTVYLQMNSLTPEDTAVYYCNAVGRRWYRDPARYNEYNYWGQGTQVTVSS | high polyreactivity
24 | QVQLVESGGGLVQAGGSLRLSCAASGRISPVYAMGWYRQAPGKERELVAAITSGGSTNYADSVKGRFTISRDNAQNTVYLQMNSLKPEDTAVYYCAVEGFSSAAYDFEYWGQGTQVTVSS | high polyreactivity
25 | QVQLVESGGGLVQAGGSLRLSCAASGRTFFPYVMGWYRQAPGKERELVAAISNSGTSTYYADSVKGRFTISRDNAKNTVYLQMNSLKPEDTAVYYCAARRYVGLYYWGQGTQVTVSS | high polyreactivity
26 | QVQLVESGGGLVQAGGSLRLSCDASGRILTSNAMGWYRQPPGKERELVAAISWSGGSTYYADSVKGRFTISRDNAKNTVYLQMNSLKPEDTAVYYCAAPFTTTFDYWGQGTQVTVSS | low polyreactivity
27 | QVHLVESGGGLVQAGGSLRLSCAASGSTFQSNAMGWYRQAPGKERELVATITQSGATTYYADSVKGRFTISRDNAKNTVYLQMNSLKPEDTAVYYCNVDTYQKRWFWLDLDGGYWGQGTQVTVSS | low polyreactivity
28 | QVQLVESGGGLVQAGGSLRLICPASGRTFQYYAMGWYRQAPGKERELVAAIDDSDGDTYYADSVKGRFTISRDYATNTVYLQMISLKPEDTAVYYCAAVDGWTYTGSDYWGQGTQVTVSS | low polyreactivity
29 | QVQLVESGGGLVQAGGSHRLSCAASGSIFAIYAMGWYRQAPGKERELVAAISSSSGSTYYADSVKGRFTISRDNAKNTVYLQMNSLKPEDTAVYYCAAESGRRIKYWRGYYYWGQGTQVTVSS | low polyreactivity
30 | QVQLVESGGGLVQAGGSLRLSCAASGIIFIYYVMGWYRQAPGKERELVAAISRSGGSTYYADSVKGRFTISRDNAKNTVNLQMNSLKPEDTAVYYCAARRITSTDEYYWGQGTQVTVSS | high polyreactivity
31 | QVQLVESGGGLVQAGGSLRLSCAASGFTFNRYAMGWYRQAPGKERELVAAIRSRGGSTYYADSVKGRFTISRDNAKNTVYLQMNSLKPEDTAVYYCAARSFQFYRFDYWGQGTQVTVSS | high polyreactivity
32 | QVQLVESCGGLVQAGGSLRLSCAASGIIFGVYALGWYRQAPGKERELVAAIDGNGSSTSYADSVKGRFSISRDNAKNTVYLQINSLKPEDTAVYYCAAGYWYYLYYCYDFDYWGQGTQVTVSS | low polyreactivity
33 | QVQLVESGGGLVQAGGSLRLSCAASGLIFPRYAMGWYRQAPGKERELVAAITRGGSTYYADSVKGRFTISRDNAKNTVYLQMNSLKPEATAVYDCNAELPVHCSWYDYWGQGTQVTVSS | low polyreactivity
34 | QVQLVESGGGLVQAGGSLRLTCAASGSTFADYAMGWYRQAPGKERELVAAITGDGGNTYYADSVKGRFTISRDNAKNTVYLQMNSLKPEDTAVYYCAAEHETGAYYYWGLGTQVTVSS | high polyreactivity
35 | QVQLVESGGGLVQAGGSLRLSCADSGRIFHYNAMGWYRQAPRKERELVAAISTGGSTNYADSVKGRFTISRDNAKNTVYLQMNSLNPEDTAVYYCAADHPVTYPTSKFDYCGQGTQVTVSS | low polyreactivity
36 | QVQLVESGGGLVQAGGSLRLSCAASGNILRYAMGWYRQAPGKERELVARISWRGGSTYYADSVKGRFTISRDNAKNTVYLQMNSLKPEDTAVYYCNKAYLGGGWQKTYDYWGQGTQVTVSS | high polyreactivity
37 | QVQLVESGGGLVQAGGSLRLSCAASGRTLSVYAMGWYRQAPGKERELVAAITIRGGRTYYADSVKGRFTISRDNAKNTVYLQMNSLKPEDTAVYYCAAPPYVKMDYWGQGTQVTVSS | high polyreactivity
38 | QVQLVESGGGLVQAGGTLRLSCAASGFTFSINAMGWSRQAPGKERELVAGISWSGGITYYADSVKGRFTISRDNAKNTVYLQMNSLKPEDTAVYYCNTDYGLTTPVVWDDYWGQGTQVTVSS | low polyreactivity
39 | QVKLVDSGGGLVQAGGSLRISCGASGRTFYGYDMGWYRQAPGKERELVAAINWRGVRTYYADSVKGRFTISRDNAKNTDYLEMNCLKPEDTAVYYCGVYNHWVYGNDYWGQGTQVTVSS | high polyreactivity
40 | QVQLVESGGGLVQAGGSLRLRCAASGGIFGYYAMGLYRQAPGKERDFVAAITLSGGRTYYADSVKGRFTISRDNAKNTVYLQMNSLKPEDTAVYYCAAKGTRRGKERNYWGQGTQVTLSS | high polyreactivity
41 | QVQLVESGGGLVQAGGSLRLSCAAYGRILSLYAMGWYRQAPGKERQLVAAIRWSGSRTYYADSVKGRFTISRDNAKNTVYLQMNSLKPEDTAVYYCAARDSTNLLSGYTHYYWGQGTQVTVSS | high polyreactivity
